The supplement of paper PMC12783771
± gives the standard deviation of the averaged measurements.

B1: library; numbered along this chain (parent)
chain: MNIQIGELAKRTACPVVTIRFYEQEGLLPPPGRSRGNFRLYGEEHVERLQFIRHCRSLDMPLSDVRTLLSYRKRPDQDCGEVNMLLDEHIRQVESRIGALLELKHHLVELREACSGARPAQSCGILQGLSDCVCDTRGTTAHPSD

Assays:
[1] = variants of: B1; assay: sfGFP reporter fluorescence (15 h) (µM FITC); higher = higher leak; conditions: library round: Round 1; ligand: none
Method in brief: (§1)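 Linear PbrR templates were made by PCR, normalized to 5 nM with an Echo, and expressed in BL21 Star (DE3) PANOx-SP extract with the pPbrR-sfGFP reporter plasmid and 30 μg/mL GamS. Echo-assembled 1 μL reactions held 1 µM lead chloride, 30 µM zinc acetate or no metal and were incubated 15 hr at 30 °C. Endpoint sfGFP fluorescence was read on a Synergy Neo2 and expressed as µM FITC using standard curves. Up to three biological replicates were run.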

[2] = variants of: B1; assay: sfGFP reporter fluorescence (15 h) (µM FITC); higher = stronger transcriptional activation; conditions: library round: Round 1
Method in brief: as §1

| Variant | sfGFP reporter fluorescence [1] | sfGFP reporter fluorescence ([2]; ligand: 1 µM Pb) | sfGFP reporter fluorescence ([2]; ligand: 30 µM Zn) |
| --- | --- | --- | --- |
| N83M D131A | 0.0614 ± 0.0015 | 0.0845 ± 0.004 | 0.065 ± 0.0015 |
| D131F D135A | 0.0667 ± 0.0016 | 0.071 ± 0.0022 | 0.345 ± 0.018 |
| N83T E94R | 0.0643 ± 0.0013 | 0.0792 ± 0.002 | 0.128 ± 0.0019 |
| N83S D135P | 0.0623 ± 0.00073 | 0.0811 ± 0.0058 | 0.145 ± 0.004 |
| N83T L107C G128M | 0.432 ± 0.012 | 1.31 ± 0.1 | 2.39 ± 0.53 |
| C55L M60L P61N D64K | 0.071 ± 0.0012 | 0.0878 ± 0.0025 | 0.382 ± 0.0068 |
| N83T L107C D135A P143T | 0.1501 ± 0.0015 | 0.642 ± 0.046 | 1.85 ± 0.12 |
| N83R L107H | 0.0594 ± 0.00064 | 0.0632 ± 0.0012 | 0.0662 ± 0.0035 |
| G36K P61N | 0.0721 ± 0.0043 | 0.112 ± 0.0096 | 0.588 ± 0.075 |
| C79F G128M | 0.0586 ± 0.0017 | 0.0606 ± 0.0011 | 0.0597 ± 0.00073 |
| M60L P61D D64K | 0.237 ± 0.022 | 0.609 ± 0.14 | 1.82 ± 0.074 |
| D64K K104E | 0.0882 ± 0.0047 | 0.31 ± 0.058 | 1.65 ± 0.039 |
| D131A C134V | 0.0781 ± 0.0011 | 0.12 ± 0.0056 | 1.24 ± 0.15 |
| E109I R111L | 0.0627 ± 0.0016 | 0.0717 ± 0.003 | 0.217 ± 0.0064 |
| L107C G128I P143A | 0.52 ± 0.062 | 1.09 ± 0.32 | 2.25 ± 0.092 |
| P61N D64K D131C | 0.119 ± 0.0056 | 0.297 ± 0.065 | 0.868 ± 0.068 |
| P61N D131C | 0.108 ± 0.0091 | 0.428 ± 0.043 | 1.59 ± 0.16 |
| P61L L62I | 0.063 ± 0.00064 | 0.063 ± 0.0019 | 0.0771 ± 0.0011 |
| N83T L107E | 0.0668 ± 0.00076 | 0.0635 ± 0.0022 | 0.0662 ± 0.0024 |
| N83T L107F | 0.06096 ± 0.00056 | 0.059 ± 0.002 | 0.0604 ± 0.0011 |
| N83T L107C | 0.1001 ± 0.00064 | 0.518 ± 0.13 | 1.53 ± 0.15 |
| E109H D131C | 0.0634 ± 0.0019 | 0.0764 ± 0.0062 | 0.159 ± 0.017 |
| D64K R111A | 0.112 ± 0.0044 | 0.382 ± 0.052 | 1.83 ± 0.27 |

| Variant | sfGFP reporter fluorescence [1] | sfGFP reporter fluorescence ([2]; ligand: 1 µM Pb) | sfGFP reporter fluorescence ([2]; ligand: 30 µM Zn) |
| --- | --- | --- | --- |
| D131M D135A | 0.0704 ± 0.005 | 0.0869 ± 0.0074 | 0.573 ± 0.039 |
| P30A K104V | 0.0666 ± 0.0032 | 0.115 ± 0.011 | 0.583 ± 0.05 |
| N83T H89Q | 0.0608 ± 0.0025 | 0.0955 ± 0.011 | 0.258 ± 0.013 |
| K104V L107G G128M | 0.0645 ± 0.0022 | 0.0955 ± 0.013 | 0.29 ± 0.028 |
| L129M P143T | 0.0636 ± 0.0011 | 0.0636 ± 0.0025 | 0.07306 ± 0.00056 |
| L110I R111A | 0.0628 ± 0.00092 | 0.0635 ± 0.0042 | 0.415 ± 0.045 |
| D64K C114F | 0.0621 ± 0.0032 | 0.0613 ± 0.0011 | 0.0596 ± 0.0016 |
| D131A D135A | 0.077 ± 0.0023 | 0.184 ± 0.0043 | 2.2 ± 0.17 |
| D131A P143L | 0.07208 ± 0.00056 | 0.0969 ± 0.0024 | 0.559 ± 0.0079 |
| I3M D131C | 0.066 ± 0.0019 | 0.102 ± 0.016 | 0.446 ± 0.039 |
| D87E D131C | 0.0622 ± 0.0025 | 0.0742 ± 0.0072 | 0.134 ± 0.013 |
| D131H D135A | 0.065 ± 0.00092 | 0.0777 ± 0.0089 | 0.402 ± 0.014 |
| D131H D135P | 0.0673 ± 0.0015 | 0.0988 ± 0.017 | 0.455 ± 0.04 |
| M60F P61N D64K | 0.624 ± 0.057 | 1.61 ± 0.059 | 1.82 ± 0.16 |
| R33M Q127T | 0.0635 ± 0.0027 | 0.0614 ± 0.0047 | 0.0645 ± 0.0022 |
| L107C C134I | 0.731 ± 0.13 | 1.15 ± 0.15 | 2.12 ± 0.21 |
| D64S E109H | 0.0794 ± 0.0043 | 0.193 ± 0.0059 | 1 ± 0.12 |
| V16T K104V | 0.0693 ± 0.0019 | 0.105 ± 0.0073 | 0.497 ± 0.034 |
| N83T R111L | 0.0571 ± 0.0031 | 0.0683 ± 0.0036 | 0.167 ± 0.011 |
| N83T R111F | 0.0639 ± 0.0014 | 0.0644 ± 0.004 | 0.085 ± 0.0026 |
| E94Y P143C | 0.0629 ± 0.0031 | 0.0621 ± 0.0044 | 0.0906 ± 0.0035 |
| N83T L85M | 0.0622 ± 0.0036 | 0.0669 ± 0.0024 | 0.105 ± 0.003 |
| K104V V108R | 0.109 ± 0.0031 | 0.386 ± 0.041 | 1.52 ± 0.1 |

| Variant | sfGFP reporter fluorescence [1] | sfGFP reporter fluorescence ([2]; ligand: 1 µM Pb) | sfGFP reporter fluorescence ([2]; ligand: 30 µM Zn) |
| --- | --- | --- | --- |
| K104V V108K | 0.109 ± 0.0044 | 0.316 ± 0.063 | 1.44 ± 0.15 |
| P61N D64K V108H | 0.139 ± 0.0027 | 0.462 ± 0.044 | 1.48 ± 0.026 |
| N83T D131C | 0.0627 ± 0.0013 | 0.0738 ± 0.0019 | 0.0784 ± 0.0036 |
| D135R P143A | 0.0577 ± 0.0043 | 0.0707 ± 0.0053 | 0.317 ± 0.04 |
| G128H P143A | 0.061 ± 0.0027 | 0.0728 ± 0.0023 | 0.121 ± 0.0099 |
| G128H P143W | 0.0661 ± 0.0013 | 0.086 ± 0.0043 | 0.159 ± 0.012 |
| N83S V108N | 0.0632 ± 0.0015 | 0.0665 ± 0.0043 | 0.146 ± 0.0045 |
| V16C V46Y | 0.0651 ± 0.0018 | 0.07452 ± 0.00021 | 0.0793 ± 0.0053 |
| G32A D131C | 0.0613 ± 0.0022 | 0.0707 ± 0.0055 | 0.147 ± 0.0097 |
| E109D D135R | 0.06377 ± 0.00037 | 0.0733 ± 0.0076 | 0.422 ± 0.031 |
| R111F E112A | 0.05962 ± 0.00021 | 0.0657 ± 0.00092 | 0.22 ± 0.021 |
| D64T G128I D135A | 0.4487 ± 0.003 | 0.801 ± 0.052 | 2.35 ± 0.3 |
| V82I E112I D131C | 0.0625 ± 0.0026 | 0.0635 ± 0.0028 | 0.0669 ± 0.0057 |
| C55L K104V | 0.0651 ± 0.0015 | 0.0729 ± 0.004 | 0.121 ± 0.0031 |
| D64A R111L | 0.061 ± 0.0013 | 0.105 ± 0.01 | 0.743 ± 0.022 |
| M60L D64K R111L | 0.205 ± 0.0039 | 0.676 ± 0.1 | 1.99 ± 0.49 |
| P61D D64M R111L | 0.177 ± 0.015 | 0.323 ± 0.09 | 1.43 ± 0.099 |
| N83T C123L | 0.0594 ± 0.0013 | 0.0586 ± 0.0016 | 0.059 ± 0.0017 |
| D131S D135A | 0.0649 ± 0.0016 | 0.0893 ± 0.0049 | 0.459 ± 0.015 |
| K104V G128M D135A | 0.103 ± 0.0031 | 0.291 ± 0.048 | 1.8 ± 0.11 |
| M60L D64K L107C E109L G128I D131T | 2.84 ± 0.3 | 2.23 ± 0.17 | 2.37 ± 0.23 |
| D64K N83T | 0.0636 ± 0.0021 | 0.186 ± 0.009 | 0.695 ± 0.022 |
| G128I D135P | 0.074 ± 0.0013 | 0.172 ± 0.013 | 0.904 ± 0.084 |

| Variant | sfGFP reporter fluorescence [1] | sfGFP reporter fluorescence ([2]; ligand: 1 µM Pb) | sfGFP reporter fluorescence ([2]; ligand: 30 µM Zn) |
| --- | --- | --- | --- |
| P61N V108M | 0.07 ± 0.0013 | 0.122 ± 0.0096 | 0.698 ± 0.094 |
| R96G | 0.0668 ± 0.0022 | 0.076 ± 0.004 | 0.195 ± 0.012 |
| R96Q | 0.0632 ± 0.0037 | 0.0982 ± 0.0089 | 0.455 ± 0.0056 |
| D131C P143R | 0.0674 ± 0.0018 | 0.0812 ± 0.0024 | 0.196 ± 0.0083 |
| D131S P143A | 0.0606 ± 0.0013 | 0.07916 ± 0.00037 | 0.373 ± 0.042 |
| P61N D64T D131C | 0.139 ± 0.011 | 0.315 ± 0.076 | 1.1 ± 0.12 |
| N83S P143W | 0.0614 ± 0.0019 | 0.102 ± 0.012 | 0.556 ± 0.027 |
| V46F K104V | 0.0666 ± 0.0012 | 0.103 ± 0.0038 | 0.475 ± 0.047 |
| N83I D131S | 0.063 ± 0.0013 | 0.0862 ± 0.0031 | 0.0633 ± 0.0013 |
| N83Y R111D | 0.06194 ± 0.00037 | 0.0568 ± 0.0025 | 0.0571 ± 0.0031 |
| N83Y R111A | 0.064 ± 0.00092 | 0.0721 ± 0.0067 | 0.0742 ± 0.00085 |
| D135S P143W | 0.0694 ± 0.00085 | 0.0798 ± 0.0084 | 0.355 ± 0.051 |
| L107C D131A | 0.73 ± 0.082 | 1.4 ± 0.048 | 2.23 ± 0.17 |
| N83T D131A P143L | 0.0646 ± 0.0011 | 0.0895 ± 0.002 | 0.161 ± 0.012 |
| P61L K104V | 0.0638 ± 0.00097 | 0.0617 ± 0.005 | 0.0765 ± 0.0044 |
| D64K D131A | 0.131 ± 0.0097 | 0.37 ± 0.032 | 1.76 ± 0.11 |
| P61N L62I | 0.0668 ± 0.0015 | 0.0856 ± 0.0013 | 0.379 ± 0.015 |
| R96A K104V G128M | 0.0678 ± 0.0023 | 0.0902 ± 0.0061 | 0.257 ± 0.008 |
| D64A C134M | 0.135 ± 0.0022 | 0.233 ± 0.0049 | 1.77 ± 0.21 |
| I97A K104V | 0.0886 ± 0.0059 | 0.303 ± 0.071 | 1.11 ± 0.076 |
